Laboratory results taken from article PMC5434802.

Tests used:
Assay in all cases: EMSA
Details in all cases: EMSA conditions not in material; end-labelled fragments pre-incubated with Fis and/or FNR before RNA polymerase
[1] = biological target: T1, FNR D154A D154A (Escherichia coli K-12?) (UniProt P0A9E5)
T1 sequence: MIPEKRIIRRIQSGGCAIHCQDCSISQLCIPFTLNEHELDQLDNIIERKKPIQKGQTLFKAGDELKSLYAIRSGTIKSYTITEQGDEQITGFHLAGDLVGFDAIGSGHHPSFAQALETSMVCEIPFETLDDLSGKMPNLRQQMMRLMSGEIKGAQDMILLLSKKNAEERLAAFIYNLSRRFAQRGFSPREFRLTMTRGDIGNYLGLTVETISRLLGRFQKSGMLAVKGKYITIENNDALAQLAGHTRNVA

[2] = biological target: FNR D154A;RNA polymerase D154A (Escherichia coli K-12?;Escherichia coli) (UniProt P0A9E5+P0A7Z4+P0A8V2+P0A8T7+P0A800+P00579)
[3] = biological target: T2, Fis (Escherichia coli K-12?) (UniProt P0A6R3)
T2 sequence: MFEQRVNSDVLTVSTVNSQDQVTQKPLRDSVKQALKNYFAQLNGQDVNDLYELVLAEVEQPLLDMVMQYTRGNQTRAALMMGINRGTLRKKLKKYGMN

[4] = biological target: Fis;FNR D154A D154A (Escherichia coli K-12?;Escherichia coli K-12?) (UniProt P0A6R3+P0A9E5)
[5] = biological target: Fis;FNR D154A;RNA polymerase D154A (Escherichia coli K-12?;Escherichia coli K-12?;Escherichia coli) (UniProt P0A6R3+P0A9E5+P0A7Z4+P0A8V2+P0A8T7+P0A800+P00579)
[6] = biological target: RNA polymerase (Escherichia coli) (UniProt P0A7Z4+P0A8V2+P0A8T7+P0A800+P00579)

Sequence: AGCTTACATTGCTCGCCCCTATGTGTAACAAATAACCACACTGTGAATGTTGTCTTTAATCAATTGTAAGTGCATGTAAAATACCACTTTAGAGTTAGTCAGG / AATTCCTGACTAACTCTAAAGTGGTATTTTACATGCACTTACAATTGATTAAAGACAACATTCACAGTGTGGTTATTTGTTACACATAGGGGCGAGCAATGTA [pnrf97 E. coli K-12]
- binding [1]: binds
- binding [2]: binds more weakly
- binding [3]: binds
- binding [4]: binds
- binding [5]: binds more weakly
- binding [6]: binds

Sequence: AATTCCTGACTAACTCTAAAGTGGTATTTTACATGCACTTACAATTGATTAAAGACAACATTCACAGTGTGGTTATTTGTTACACTTAGGGGCGAGCAATGTA / AGCTTACATTGCTCGCCCCTAAGTGTAACAAATAACCACACTGTGAATGTTGTCTTTAATCAATTGTAAGTGCATGTAAAATACCACTTTAGAGTTAGTCAGG [pnrf97 EHEC]
- binding [1]: binds
- binding [3]: binds
- binding [4]: binds
